Substitutions are numbered along the chain they refer to.
Experiments:
[1] = target: T1, human CD70 expressed on the surface of cells (human, UniProt P32970 1-193); test: FACS MFI at 37 C, EBC-1 cells; reference SGN70
T1 construct: whole, on cells; also called cell surface expressed CD70; CD70 on cells
T1 sequence (looked up): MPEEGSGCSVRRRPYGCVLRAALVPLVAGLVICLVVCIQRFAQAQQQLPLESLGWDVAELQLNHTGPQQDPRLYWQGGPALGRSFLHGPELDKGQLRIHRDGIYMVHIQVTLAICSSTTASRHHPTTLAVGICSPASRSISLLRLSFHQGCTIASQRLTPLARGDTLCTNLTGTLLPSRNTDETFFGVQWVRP
Method: Several cancer cell lines were tested by FACS analysis for binding of ARGX-110 and SGN70 (described in US2010/0129362) at saturating mAb concentrations (at least 2 μg/ml). This was either done at 4° C. (1 hour incubation of cells with mAbs) or at 37° C. (15 minutes incubation of cells with mAbs). Binding was detected using anti-hIgG1-Fc-FITC (AF006, Binding Site) or anti-hIgG1-Fc-PE antibody (eBioscience, 12-4998). Fluorescence was measured using a flow cytometer.

[2] = target: T2, human-mouse CD70 chimera chim-2.3 (Flag-TNC-CD70); test: ELISA; chimera captured by anti-Flag mAb; anti-human-Fc-HRP
T2 construct: also called chimera 2.3
T2 chain: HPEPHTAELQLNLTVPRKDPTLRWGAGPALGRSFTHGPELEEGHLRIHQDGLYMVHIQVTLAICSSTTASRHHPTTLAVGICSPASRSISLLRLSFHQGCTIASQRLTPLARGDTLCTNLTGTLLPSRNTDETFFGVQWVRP
Method: (§1) A Maxisorb (Nunc) microtiter plate was coated with 3.5 μg/ml mouse M2 anti-Flag mAb (Sigma Aldrich, F3165) and the different chimeras were captured. A dilution series of the CD70 mAbs to be tested was applied starting at a concentration of 10 μg/ml and making 3-fold dilutions. After 2 hours, binding was detected using anti-human-Fc-HRP at a 16000-fold dilution. Staining was done with ABTS and OD at 405 nm was measured. As a positive control, CD27-Fc was applied which is able to bind to both human and mouse CD70 with good affinity as well as to the chimeric human-mouse CD70 variants.

[3] = target: T3, human-mouse CD70 chimera chim-1 (Flag-TNC-CD70) (Homo sapiens (Human), UniProt P32970 58-193, Soluble homotrimer held by the TNC domain; one CD70 ECD chain is given.); test: as above
T3 construct: also called chimera 1; not shown: N-terminal Flag tag, TNC (tenascin-C) trimerisation domain and any linkers of the Flag-TNC-CD70 construct
T3 chain: T2 chain with T35L, E41D, E42K, H44Q, Q49R, L52I
Method: as §1

[4] = target: T4, human-mouse CD70 chimera chim-2.4 (Flag-TNC-CD70); test: as above
T4 construct: also called chimera 2.4
T4 chain: T2 chain with M54R, V55L
Method: as §1

[5] = target: T5, human-mouse CD70 chimera chim-2.1 (Flag-TNC-CD70) (Soluble homotrimer held by the TNC domain; one CD70 ECD chain is given.); test: as above
T5 construct: also called chimera 2.1; not shown: N-terminal Flag tag, TNC (tenascin-C) trimerisation domain and any linkers of the Flag-TNC-CD70 construct
T5 chain: T2 chain with E41D, E42K, H44Q, Q49R, L52I
Method: as §1

[6] = target: cynomolgus monkey Flag-TNC-CD70 (cynomolgus monkey); test: blocking ELISA; cynomolgus Flag-TNC-CD70; competitor CD27-Fc
Method: In this assay, a microtiter plate (Nunc Maxisorb) was first coated with 100 μl anti-FLAG M2 monoclonal antibody (Sigma Aldrich, F3165) at 1250-fold dilution in PBS (to achieve a final concentration of approximately 3.5 μg/ml) overnight at 4° C. The plate was washed once with PBS-Tween and incubated at RT for 2 hours with 300 μl PBS-1% casein. The plate was washed a further three times with PBS-Tween. 100 μl of 5 ng/ml (80 pM) Flag-TNC-CD70 (The Journal of Immunology, 2009, 183: 1851-1861) diluted in PBS-0.1% casein was added to the plate and incubated at RT for 1 hour while shaking. The plate was washed five times with PBS-Tween. The CD70 mAb to be tested was added to the plate; various concentrations were achieved by diluting the stock antibody solution in PBS-0.1% casein. Immediately thereafter, 50 μl of 1 μg/ml (final concentration 6.5 nM) recombinant human CD27 Fc chimera (R&D systems 382-CD, MW=46.5 kDa) was added, and incubated at RT for 1 hour while shaking. The plate was washed five times with PBS Tween. 100 μl of biotinylated anti-CD27 (eBioscience 13-0271), diluted 500-fold in PBS-0.1% casein, was added, and the plate incubated at RT for a further hour, while shaking. The plate was washed five times with PBS Tween. […] 100 μl TMB was added to the plate and the OD at 620 nm was measured. […]

Signal in FACS of ARGX-110/signal in FACS of SGN70 [1]: 8.9 ratio | EC50 [2]: 0.015 µg/mL | EC50 [3]: 0.027 µg/mL | EC50 [4]: 0.014 µg/mL | EC50 [5]: 0.015 µg/mL | IC50 [6]: 0.048 µg/mL
B1: ARGX-110 (non-fucosylated 41D12 human IgG1) (antibody, V domains shown)
VH: EVQLVESGGGLVQPGGSLRLSCAASGFTFSVYYMNWVRQAPGKGLEWVSDINNEGGTTYYADSVKGRFTISRDNSKNSLYLQMNSLRAEDTAVYYCARDAGYSNHVPIFDSWGQGTLVTVSS
VL: QAVVTQEPSLTVSPGGTVTLTCGLKSGSVTSDNFPTWYQQTPGQAPRLLIYNTNTRHSGVPDRFSGSILGNKAALTITGAQADDEAEYFCALFISNPSVEFGGGTQLTVLG
notes: also called 41D12 (ARGX-110)

Source: patent US20150266963A1 (ARGEN X B V, published 2015)
